Where no end group is shown, it is not given here. [ ]: non-standard residue; d: D form.
Legend:
Assay type in all cases: biochemical
[1] = target: T1, tau full-length protein (Homo sapiens, UniProt P10636); assay: Dynamic light scattering (DLS) measurements of tau aggregation with arachidonic acid; conditions: for Mass Day 1 / Mass Day 8 / Particle size Day 1 / Particle size Day 8: DLS, 1 μg/ml tau full-length protein, 100 μM arachidonic acid (AA), peptide at ratio 1:10; for Effect on aggregation of tau in DLS (in words): tau full-length protein, 100 μM arachidonic acid, peptide ratio 1:10
T1 construct: Since this is not possible for the full-length tau protein (441 amino acids)
Protocol: For this purpose. 1 μg/ml tau full-length protein was analyzed using 100 μM arachidonic acid and the respective peptide at a ratio of 1:10. Tau without peptide and without the addition of arachidonic acid was measured for control purposes. […] DLS was carried out with an acquisition time of 5 seconds for 3 minutes at room temperature.

[2] = target: tau fibrils (Homo sapiens, UniProt P10636); assay: Effect of peptides on existing tau fibrils
[3] = target: PHF-6 (Homo sapiens, UniProt P10636); assay: ThT aggregation assay of PHF-6 (relative fibril content); conditions: 25 μM PHF-6, PHF-6:peptide 1:1 and 1:10, two hours of incubation
Protocol: (§1) In mirror image phage display selections, the selection rounds are carried out against a D-enantiomer as the target, which must be generated synthetically. Since this is not possible for the full-length tau protein (441 amino acids), the selections were carried out against the D-enantiomer of a 6-mer tau fragment (PHF-6), which can be found in tau repeats R2 and R3 and, according to various studies, forms the core of the neurofibrillary tangles (von Bergen, M., Assembly of τ protein into Alzheimer paired helical filaments depends on a local sequence motif (306VQIVYK311) forming β structure PNAS, 1999. 97(10): p. 5129-5134; Miller, M., Synergistic Interactions between Repeats in Tau Protein and Aβ Amyloids May Be Responsible for Accelerated Aggregation via Polymorphic States. 5172-5181, 2011. 50(23): p. 5172-5181). […]
The concentration of PHF-6 was 25 μM; the peptides were measured at a ratio of 1:1 and 1:10 (PHF-6:peptide) and as controls individually in a 25 μM concentration (not shown). The fluorescence of 25 μM PHF-6 after two hours of incubation was set at 100%, and the values and standard deviations of the remaining incubations are indicated as percentages of this maximal value.

[4] = target: full-length tau protein (Homo sapiens, UniProt P10636); assay: ThT aggregation assay of tau with 100 μM arachidonic acid (relative fibril content); conditions: 5 μM tau, tau:peptide 1:1 and 1:10, 24 hours
Protocol: as §1, with “5172-5181). Since aggregated material is to serve as the target for the selection, and monomeric tau protein has important physiological functions and must not be inhibited in vivo, only fribriilary material was used for the selection.” for “5172-5181).”
The concentration of tau was 5 μM; the peptides were added at a ratio of 1:1 and 1:10 (tau:peptide). The fluorescence of 5 μM tau after 24 hours of incubation was set at 100%, and the values and standard deviations of the remaining incubations are indicated as percentages of this maximal value.

T1 sequence (P10636 1-441 isoform P10636-8): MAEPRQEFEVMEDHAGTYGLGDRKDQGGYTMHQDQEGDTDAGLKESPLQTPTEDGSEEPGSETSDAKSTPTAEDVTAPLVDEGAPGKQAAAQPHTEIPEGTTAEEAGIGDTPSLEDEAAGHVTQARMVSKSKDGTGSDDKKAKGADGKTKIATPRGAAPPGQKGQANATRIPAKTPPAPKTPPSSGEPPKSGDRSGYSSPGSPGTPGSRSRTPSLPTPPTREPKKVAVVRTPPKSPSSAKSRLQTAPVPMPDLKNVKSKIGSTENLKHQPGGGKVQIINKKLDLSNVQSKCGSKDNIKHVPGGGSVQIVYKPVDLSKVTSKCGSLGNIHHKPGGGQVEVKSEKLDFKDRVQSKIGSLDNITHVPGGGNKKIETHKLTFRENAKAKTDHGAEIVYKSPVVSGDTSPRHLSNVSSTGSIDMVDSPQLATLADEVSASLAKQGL
Sequence of tau fibrils (P10636 1-441 isoform P10636-8): as above
Sequence of full-length tau protein (P10636 1-441 isoform P10636-8): as above

Row | Mass Day 1 [1] | Mass Day 8 [1] | Substance | Particle size Day 1 [1] | Particle size Day 8 [1] | Effect on existing tau fibrils [2] | Effect on aggregation of tau in DLS (in words) [1] | Inhibition of aggregation / fibril formation of PHF-6 [3] | Inhibition of fibrillization / aggregation of the full-length tau protein [4] | Inhibition of fibrillization / aggregation of the full-length tau protein ([4]; listed as peptide selected by Sievers)
1 | ≧99% | 100% | TTSLQMRLYYPP (not fully specified (some residues)) [TL28, label not defined in the text] | – | – | – | – | – | – | –
2 | ≧99% | ≧98% | aptilrlhslga | 1-fold | 1-fold | dissolve existing tau fibrils | – | – | – | –
3 | ≧99% | ≧99% | kntpqhrklrls ([dK][dN][dT][dP][dQ][dH][dR][dK][dL][dR][dL][dS]) [D-peptide from selections against D-PHF-6] | 1-fold | 1-fold | dissolve existing tau fibrils | – | – | – | –
4 | 100% | ≧98% | tlkivw ([dT][dL][dK][dI][dV][dW]) [Sievers, reference compound] | – | – | – | showed no effect on the aggregation of the full-length tau protein | inhibited the aggregation of PHF-6 to a similar degree as that of the peptides we developed | not the aggregation of the full-length tau protein | in most approaches showed no effect at all

Row | Substance | Mass Day 1 [1] | Mass Day 8 [1] | Particle size Day 1 [1] | Particle size Day 8 [1] | Effect on existing tau fibrils [2] | Effect on aggregation of tau in DLS (in words) [1] | Inhibition of aggregation / fibril formation of PHF-6 [3] | Inhibition of fibrillization / aggregation of the full-length tau protein [4] | Inhibition of fibrillization / aggregation of the full-length tau protein ([4]; listed as peptide selected by Sievers)
5 | ppyylxmqlstt ([dP][dP][dY][dY][dL][dR][dM][dQ][dL][dS][dT][dT]) [TD28ri, retro-inverso peptide of …] | 100% | 100% | 55-fold | 44-fold | convert tau fibrils into large amorphous aggregates | formation of very large aggregates | – | – | –
6 | ttslqmrlyypp ([dT][dT][dS][dL][dQ][dM][dR][dL][dY][dY][dP][dP]) [TD28] | 100% | 100% | 42-fold | 48-fold | convert tau fibrils into large amorphous aggregates | formation of very large aggregates | – | – | –

Reference: patent US9580469B2, “Peptides for the treatment and early diagnosis of Alzheimer's disease and other tauopathies” (priority 2012, dated 2017)
